From patent US10377811B2, “Peptides, combination of peptides as targets and for use in immunotherapy against gallbladder cancer and cholangiocarcinoma and other cancers” (Immatics biotechnologies GmbH, priority 2016, dated 2019)

Columns and labels:
[1] = biological target: HLA-A*02:01 (Homo sapiens, UniProt P04439, D140Y/D185E/D98H/E176V/E277Q/G131W/G231S/I119V/I121R/I166T/I218V/L300P/L318F/N151K/N90K/P208A/P217A/Q86G/Q94H/R138H/R169H/T345S); test: MHC binding assay (UV-ligand exchange, β2m ELISA); details: peptide exchange yield
From the text: Candidate peptides for T cell based therapies according to the present invention were further tested for their MHC binding capacity (affinity). The individual peptide-MHC complexes were produced by UV-ligand exchange, where a UV-sensitive peptide is cleaved upon UV-irradiation, and exchanged with the peptide of interest as analyzed. Only peptide candidates that can effectively bind and stabilize the peptide-receptive MHC molecules prevent dissociation of the MHC complexes. To determine the yield of the exchange reaction, an ELISA was performed based on the detection of the light chain (β2m) of stabilized MHC complexes. The assay was performed as generally described in Rodenko et al. (Rodenko et al., 2006).
96 well MAXISorp plates (NUNC) were coated over night with 2 ug/ml streptavidin in PBS at room temperature, washed 4× and blocked for 1 h at 37° C. in 2% BSA containing blocking buffer. Refolded HLA-A*02:01/MLA-001 monomers served as standards, covering the range of 15-500 ng/ml. Peptide-MHC monomers of the UV-exchange reaction were diluted 100-fold in blocking buffer. Samples were incubated for 1 h at 37° C., washed four times, incubated with 2 ug/ml HRP conjugated anti-β2 m for 1 h at 37° C., washed again and detected with TMB solution that is stopped with […]. Absorption was measured at 450 nm. Candidate peptides that show a high exchange yield (preferably higher than 50%, most preferred higher than 75%) are generally preferred for a generation and production of antibodies or fragments thereof, and/or T cell receptors or fragments thereof, as they show sufficient avidity to the MHC molecules and prevent dissociation of the MHC complexes.

[2] = system: CD8+ T cells of healthy HLA-A*02 donors; test: In vitro T-cell priming immunogenicity assay with aAPCs loaded with peptide/MHC complexes and anti-CD28 antibody, multimer readout; format: cell-based, human; details: for Wells positive [%]: HLA-A*02 restricted peptides, percentage of positive wells among evaluable, Table 10B; for wells (in vitro immunogenicity): HLA class I peptides, Table 10A
From the text: In order to obtain information regarding the immunogenicity of the TUMAPs of the present invention, the inventors performed investigations using an in vitro T-cell priming assay based on repeated stimulations of CD8+ T cells with artificial antigen presenting cells (aAPCs) loaded with peptide/MHC complexes and anti-CD28 antibody.
In order to perform in vitro stimulations by artificial antigen presenting cells loaded with peptide-MHC complex (pMHC) and anti-CD28 antibody, the inventors first isolated CD8+ T cells from fresh HLA-A*02 leukapheresis products via positive selection using CD8 microbeads (Miltenyi Biotec, Bergisch-Gladbach, Germany) of healthy donors obtained from the University clinics Mannheim, Germany, after informed consent.
PBMCs and isolated CD8+ lymphocytes were incubated in T-cell medium (TCM) until use consisting of RPMI-Glutamax (Invitrogen, Karlsruhe, Germany) supplemented with 10% heat inactivated human AB serum (PAN-Biotech, Aidenbach, Germany), 100 U/ml Penicillin/100 μg/ml Streptomycin (Cambrex, Cologne, Germany), 1 mM sodium pyruvate (CC Pro, Oberdorla, Germany), 20 μg/ml Gentamycin (Cambrex). 2.5 ng/ml IL-7 (PromoCell, Heidelberg, Germany) and 10 U/ml IL-2 (Novartis Pharma, Nürnberg, Germany) were also added to the TCM at this step.
Generation of pMHC/anti-CD28 coated beads, T-cell stimulations and readout was performed in a highly defined in vitro system using four different pMHC molecules per stimulation condition and 8 different pMHC molecules per readout condition.
The purified co-stimulatory mouse IgG2a anti human CD28 Ab 9.3 (Jung et al., 1987) was chemically biotinylated using Sulfo-N-hydroxysuccinimidobiotin as recommended by the manufacturer (Perbio, Bonn, Germany). Beads used were 5.6 μm diameter streptavidin coated polystyrene particles (Bangs Laboratories, Ill., USA).
800.000 beads/200 μl were coated in 96-well plates in the presence of 4×12.5 ng different biotin-pMHC, washed and 600 ng biotin anti-CD28 were added subsequently in a volume of 200 μl. Stimulations were initiated in 96-well plates by co-incubating […] CD8+ T cells with 2×10^5 washed coated beads in 200 μl TCM supplemented with 5 ng/ml IL-12 (PromoCell) for 3 days at 37° C. Half of the medium was then exchanged by fresh TCM supplemented with 80 U/ml IL-2 and incubating was continued for 4 days at 37° C. This stimulation cycle was performed for a total of three times. For the pMHC multimer readout using 8 different pMHC molecules per condition, a two-dimensional combinatorial coding approach was used as previously described (Andersen et al., 2012) with minor modifications encompassing coupling to 5 different fluorochromes. Finally, multimeric analyses were performed by staining the cells with Live/dead near IR dye (Invitrogen, Karlsruhe, Germany), CD8-FITC antibody clone SK1 (BD, Heidelberg, Germany) and fluorescent pMHC multimers. For analysis, a BD LSRII SORP cytometer equipped with appropriate lasers and filters was used. Peptide specific cells were calculated as percentage of total CD8+ cells. Evaluation of multimeric analysis was done using the FlowJo software (Tree Star, Oreg., USA). In vitro priming of specific multimer+ CD8+ lymphocytes was detected by comparing to negative control stimulations.

Substance	Peptide exchange (MHC class I binding score) [1]	Wells positive [%] [2]	wells (in vitro immunogenicity) [2]
1 (YAAEIASAL; listed as Homo sapiens) [compound 1]	+++ (>50 = +++)	–	–
2 (AAYPEIVAV; listed as Homo sapiens) [compound 2]	+++ (>50 = +++)	–	–
3 (EMDSTVITV; listed as Homo sapiens) [compound 3]	+++ (>50 = +++)	–	–
4 (FLLEAQNYL; listed as Homo sapiens) [compound 4]	++++ (>75% = ++++)	–	–
5 (GLIDEVMVLL; listed as Homo sapiens) [compound 5]	++++ (>75% = ++++)	–	–
6 (LLLPLLPPLSPS; listed as Homo sapiens) [compound 6]	++++ (>75% = ++++)	+ (<20% = +)	–
7 (LLLSDPDKVTI; listed as Homo sapiens) [compound 7]	++++ (>75% = ++++)	–	–
8 (LSASLVRIL; listed as Homo sapiens) [compound 8]	+ (>10% = +)	–	–
9 (RLAKLTAAV; listed as Homo sapiens) [compound 9]	++++ (>75% = ++++)	–	–
10 (SAFPFPVTVSL; listed as Homo sapiens) [compound 10]	++ (>20% = ++)	–	–
11 (SIIDFTVTM; listed as Homo sapiens) [compound 11]	++++ (>75% = ++++)	–	–
12 (TILPGNLQSW; listed as Homo sapiens) [compound 12]	+ (>10% = +)	–	–
13 (VLPRAFTYV; listed as Homo sapiens) [compound 13]	++++ (>75% = ++++)	++++ (> = 70% = ++++)	–
14 (YGIEFVVGV; listed as Homo sapiens) [compound 14]	++++ (>75% = ++++)	–	–
15 (SVIDSLPEI; listed as Homo sapiens) [compound 15]	++++ (>75% = ++++)	–	–
16 (AVMTDLPVI; listed as Homo sapiens) [compound 16]	++++ (>75% = ++++)	+ (<20% = +)	–
17 (VLYDNTQLQL; listed as Homo sapiens) [compound 17]	++++ (>75% = ++++)	–	–
18 (SLSPDLSQV; listed as Homo sapiens) [compound 18]	+++ (>50 = +++)	–	–
19 (TAYPQVVVV; listed as Homo sapiens) [compound 19]	++ (>20% = ++)	–	–

Substance	Peptide exchange (MHC class I binding score) [1]	Wells positive [%] [2]	wells (in vitro immunogenicity) [2]
20 (VLQDELPQL; listed as Homo sapiens) [compound 20]	++++ (>75% = ++++)	–	–
21 (IAFPTSISV; listed as Homo sapiens) [compound 21]	+++ (>50 = +++)	–	–
22 (SAFGFPVIL; listed as Homo sapiens) [compound 22]	++ (>20% = ++)	–	–
23 (SLLSELLGV; listed as Homo sapiens) [compound 23]	++++ (>75% = ++++)	–	–
24 (ISAPLVKTL; listed as Homo sapiens) [compound 24]	+ (>10% = +)	–	–
25 (NLSETASTMAL; listed as Homo sapiens) [compound 25]	++++ (>75% = ++++)	++ (20%-49% = ++)	–
26 (TAQTLVRIL; listed as Homo sapiens) [compound 26]	+ (>10% = +)	–	–
27 (ALAEQVQKA; listed as Homo sapiens) [compound 27]	+++ (>50 = +++)	–	–
28 (YASGSSASL; listed as Homo sapiens) [compound 28]	+ (>10% = +)	–	–
29 (FASEVSNVL; listed as Homo sapiens) [compound 29]	++++ (>75% = ++++)	–	–
30 (FASGLIHRV; listed as Homo sapiens) [compound 30]	+++ (>50 = +++)	–	–
31 (IAIPFLIKL; listed as Homo sapiens) [compound 31]	++++ (>75% = ++++)	–	–
32 (YVISQVFEI; listed as Homo sapiens) [compound 32]	++++ (>75% = ++++)	–	–
33 (ILGTEDLIVEV; listed as Homo sapiens) [compound 33]	–	–	++ (20%-49% = ++)
34 (LLWGNLPEI; listed as Homo sapiens) [compound 34]	–	–	++ (20%-49% = ++)
35 (GLIDEVMVL; listed as Homo sapiens) [compound 35]	–	–	++ (20%-49% = ++)
36 (ILVDWLVQV; listed as Homo sapiens) [compound 36]	–	–	++ (20%-49% = ++)
38 (KIQEILTQV; listed as Homo sapiens) [compound 38]	–	–	++ (20%-49% = ++)
